Several values for one entry are separate records, joined by “and”; a condition that tells them apart may be missing. Equal entries are not always repeated. Where two headings read alike, the source gives them in different places.
How the values were obtained:
[1] = Pharmacokinetics in CD-1 mouse, I.V. or S.C. 1 mg/kg, plasma concentration by LC-MS; conditions: for MRT inf: MRTINF_pred;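 as to all read-outs here: peptide levels in plasma quantified by LC-MS across multiple sampling times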
Method: The peptide plasma concentration at various time points was determined using LC-MS.

[2] = target: human GLP-1R (Homo sapiens, UniProt P43220); assay: In vitro receptor activation reporter assay (CRE-Luc, HEK293-GLP-1R-CRE cells; receptor-mediated cAMP synthesis); format: cell-based; set-up: expressed in transfected cells; host or cells: HEK293 (CRE-HEK293, HEK293-GLP-1R-CRE)
Method: HEK293 cells were infected with lentivirus encoding firefly luciferase gene under the control of cAMP responsive element (CRE) promoter (Qiagen, The Netherlands) and then were selected using 1 μg mL^−1 puromycin (Life Technologies, Carlsbad) for 1 week. The surviving cells (referred to as CRE-HEK293) were expanded and then transfected with a G418 selective mammalian expression plasmid encoding human GLP-1R or GIPR. In brief, GLP-1R or GIPR plasmid was transfected into CRE-HEK293 cells using Lipofectamine 2000 and selected with 400 μg mL^−1 Geneticin (Life Technologies, Carlsbad, CA). Single colony stable cell line overexpressing CRE-luciferase and GLP-1R or GIPR (HEK293-GLP-1R-CRE or HEK293-GIPR-CRE) was then established for in vitro activity assay.
HEK293 cells were infected with lentivirus encoding firefly luciferase gene under the control of cAMP responsive element (CRE) promoter (Qiagen, The Netherlands) and then were selected using 1 μg/mL puromycin (Life Technologies, Carlsbad) for 1 week. The surviving cells (referred to as CRE-HEK293) were expanded and then transfected with a G418 selective mammalian expression plasmid encoding human GLP-1R. In brief, GLP-1R plasmid was transfected into CRE-HEK293 cells using Lipofectamine 2000 and selected with 400 μg/mL Geneticin (Life Technologies, Carlsbad, CA). Single colony stable cell line overexpressing CRE-luciferase and GLP1R was then established for in vitro activity assay.

[3] = target: T1, dog GIPR (Canis lupus familiaris, UniProt A0A8I3MPG1); assay: In vitro potency, dog GIPR activation (receptor-mediated cAMP synthesis); format: cell-based; conditions: Table 12; read-out: In Vitro Potency GIPR EC50, Dog
T1 sequence (A0A8I3MPG1 24-449): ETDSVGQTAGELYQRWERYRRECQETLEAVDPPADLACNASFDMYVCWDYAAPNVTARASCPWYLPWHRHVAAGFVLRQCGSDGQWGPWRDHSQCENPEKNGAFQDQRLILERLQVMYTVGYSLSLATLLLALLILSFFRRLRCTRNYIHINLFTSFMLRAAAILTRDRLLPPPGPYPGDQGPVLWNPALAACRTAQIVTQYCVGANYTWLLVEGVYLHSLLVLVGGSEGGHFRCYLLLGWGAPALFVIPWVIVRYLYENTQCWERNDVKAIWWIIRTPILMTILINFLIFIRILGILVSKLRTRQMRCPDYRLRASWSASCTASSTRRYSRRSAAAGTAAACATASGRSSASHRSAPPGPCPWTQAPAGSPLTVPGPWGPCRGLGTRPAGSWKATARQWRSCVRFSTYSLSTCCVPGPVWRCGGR
Method: GLP-1R-CRE or HEK293-GIPR-CRE cells were seeded in 384-well plates at a density of 5000 cells per well and cultured for 18 h in DMEM with 10% FBS at 37° C. and 5% CO2. Cells were treated with peptides in a dose dependent manner for 24 h, and receptor activation was reported by luminescence intensities, using One-Glo (Promega, WI) luciferase reagent following manufacturer's instruction. The EC50 of each peptide was determined using GraphPad Prism 6 software (GraphPad, San Diego, CA). Results are depicted in FIGS. 6A-6B, FIGS. 7A-7B, FIGS. 8A-8B, FIGS. 9A-9B, and Tables 7-12. Measurements of peptide conjugate potency were expressed as half maximal effective concentration (EC50) values.

[4] = In Vitro Potency GLPIR EC50, 10% FBS, Table 11, human, 10% FBS
[5] = CD-1 mouse, S.C., 1 mg/kg, individual animals
[6] = Table 15, I.V. 1 mg/kg, individual animals, 1 mg/kg

Chain of human GLP-1R (P43220 24-463): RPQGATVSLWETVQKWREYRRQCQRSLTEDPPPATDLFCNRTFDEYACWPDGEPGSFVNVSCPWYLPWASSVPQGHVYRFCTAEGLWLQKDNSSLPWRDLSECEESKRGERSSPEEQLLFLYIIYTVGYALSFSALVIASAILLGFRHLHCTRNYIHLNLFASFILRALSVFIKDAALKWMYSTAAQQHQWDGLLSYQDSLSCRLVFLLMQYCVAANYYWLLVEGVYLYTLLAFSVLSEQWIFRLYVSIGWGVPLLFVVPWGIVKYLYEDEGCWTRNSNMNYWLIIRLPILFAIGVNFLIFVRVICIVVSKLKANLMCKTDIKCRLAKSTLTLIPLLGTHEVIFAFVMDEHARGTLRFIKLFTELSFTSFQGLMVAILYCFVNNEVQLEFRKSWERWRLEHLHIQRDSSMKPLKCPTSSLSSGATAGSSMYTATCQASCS

CC[C@H](C)[C@H](NC(=O)[C@H](CC(C)C)NC(=O)[C@H](Cc1c[nH]c2ccccc12)NC(=O)[C@@H]1CSCC(=O)NCCN(C(=O)CCC(=O)NCCOCCOCCC(=O)NCCOCCOCCC(=O)NCCCC[C@H](NC(=O)CCCCCCCCCCCCCCCCCCC(=O)O)C(=O)O)CCNC(=O)CSC[C@H](NC(=O)[C@H](CCCCN)NC(=O)[C@H](CC(=O)O)NC(=O)[C@H](CC(C)C)NC(=O)[C@H](Cc2ccc(O)cc2)NC(=O)[C@@H](NC(=O)[C@H](CO)NC(=O)[C@H](Cc2ccc(O)cc2)NC(=O)[C@H](CC(=O)O)NC(=O)[C@H](CO)NC(=O)[C@@H](NC(=O)[C@H](Cc2ccccc2)NC(=O)[C@@H](NC(=O)CNC(=O)[C@H](CCC(=O)O)NC(=O)C(C)(C)NC(=O)[C@@H](N)Cc2ccc(O)cc2)[C@@H](C)O)[C@@H](C)O)[C@@H](C)CC)C(=O)N[C@@H](C)C(=O)N[C@@H](C)C(=O)NC(C)(C)C(=O)N[C@@H](CCC(=O)O)C(=O)N[C@@H](Cc2ccccc2)C(=O)N[C@@H](C(C)C)C(=O)N1)C(=O)N[C@@H](C)C(=O)NCC(=O)NCC(=O)N1CCC[C@H]1C(=O)N[C@@H](CO)C(=O)N[C@@H](CO)C(=O)NCC(=O)N[C@@H](C)C(=O)N1CCC[C@H]1C(=O)N1CCC[C@H]1C(=O)N1CCC[C@H]1C(=O)N[C@@H](CO)C(N)=O [mCMV268]
bioavailability ([1]; CD-1, mouse, plasma, sc, 1 mg/kg): 64%
Cl ([1]; Table 14, SC 1 mg/kg): 4.8 mL/h/kg
Vd ([1]; Table 14, SC 1 mg/kg): 0.087 L/kg
clearance ([1]; mouse, in vivo, iv, 1 mg/kg): 3 mL/h/kg
AUC(0-t) ([1]; mouse, in vivo, iv, 1 mg/kg, AUC0-24, Table 14, IV 1 mg/kg): 204 µg·h/mL
AUC(0-inf) ([1]; mouse, in vivo, iv, 1 mg/kg, AUCINF, Table 14, IV 1 mg/kg): 327 µg·h/mL
AUC(0-t) ([1]; mouse, in vivo, iv, 1 mg/kg, AUCLAST, Table 14, IV 1 mg/kg): 315 µg·h/mL
Cmax ([1]; mouse, in vivo, iv, 1 mg/kg, Cmax, Table 14, IV 1 mg/kg): 34000 ng/mL
MRT last ([1]; mouse, in vivo, iv, 1 mg/kg, MRTLAST, Table 14, IV 1 mg/kg): 19.5 h
half-life ([1]; mouse, in vivo, iv, 1 mg/kg, T1/2, Table 14, IV 1 mg/kg): 14.8 h
Tmax ([1]; mouse, in vivo, iv, 1 mg/kg, Table 14, IV 1 mg/kg): 0.5 h
Vd ([1]; mouse, in vivo, iv, 1 mg/kg, Vd, Table 14, IV 1 mg/kg): 0.067 L/kg
AUC(0-t) ([1]; mouse, in vivo, sc, 1 mg/kg, AUC0-24, Table 14, SC 1 mg/kg): 92.1 µg·h/mL
AUC(0-inf) ([1]; mouse, in vivo, sc, 1 mg/kg, AUCINF, Table 14, SC 1 mg/kg): 208 µg·h/mL
AUC(0-t) ([1]; mouse, in vivo, sc, 1 mg/kg, AUCLAST, Table 14, SC 1 mg/kg): 200 µg·h/mL
Cmax ([1]; mouse, in vivo, sc, 1 mg/kg, Cmax, Table 14, SC 1 mg/kg): 4780 ng/mL
MRT last ([1]; mouse, in vivo, sc, 1 mg/kg, MRTLAST, Table 14, SC 1 mg/kg): 27.8 h
half-life ([1]; mouse, in vivo, sc, 1 mg/kg, T1/2, Table 14, SC 1 mg/kg): 12.8 h
Tmax ([1]; mouse, in vivo, sc, 1 mg/kg, Table 14, SC 1 mg/kg): 24 h
EC50 [2, 4]: 1.96 ± 0.46 nM
EC50 ([2]; unnumbered table, average of runs, read-out: EC50 GLP1R average): 0.03 nM
EC50 ([2]; unnumbered table, run 02/19, read-out: EC50 GLP1R 02/19): 0.02 nM
EC50 ([2]; unnumbered table, run 3/25, read-out: EC50 GLP1R 3/25): 0.03 nM
EC50 ([2]; unnumbered table, run 03/26, read-out: EC50 GLP1R 03/26): 0.03 nM
EC50 [3]: 0.42 nM

CC[C@H](C)[C@H](NC(=O)[C@H](CC(C)C)NC(=O)[C@H](Cc1c[nH]c2ccccc12)NC(=O)[C@@H]1CSCC(=O)NCCN(C(=O)CCC(=O)NCCOCCOCCC(=O)NCCOCCOCCC(=O)NCCCC[C@H](NC(=O)CCCCCCCCCCCCCCCCC(=O)O)C(=O)O)CCNC(=O)CSC[C@H](NC(=O)[C@H](CCCCN)NC(=O)[C@H](CC(=O)O)NC(=O)[C@H](CC(C)C)NC(=O)[C@H](Cc2ccc(O)cc2)NC(=O)[C@@H](NC(=O)[C@H](CO)NC(=O)[C@H](Cc2ccc(O)cc2)NC(=O)[C@H](CC(=O)O)NC(=O)[C@H](CO)NC(=O)[C@@H](NC(=O)[C@H](Cc2ccccc2)NC(=O)[C@@H](NC(=O)CNC(=O)[C@H](CCC(=O)O)NC(=O)C(C)(C)NC(=O)[C@@H](N)Cc2ccc(O)cc2)[C@@H](C)O)[C@@H](C)O)[C@@H](C)CC)C(=O)N[C@@H](C)C(=O)N[C@@H](C)C(=O)NC(C)(C)C(=O)N[C@@H](CCC(=O)O)C(=O)N[C@@H](Cc2ccccc2)C(=O)N[C@@H](C(C)C)C(=O)N1)C(=O)N[C@@H](C)C(=O)NCC(=O)NCC(=O)N1CCC[C@H]1C(=O)N[C@@H](CO)C(=O)N[C@@H](CO)C(=O)NCC(=O)N[C@@H](C)C(=O)N1CCC[C@H]1C(=O)N1CCC[C@H]1C(=O)N1CCC[C@H]1C(=O)N[C@@H](CO)C(N)=O [mCMZ371, YAibEGT-FTSDY-SIYLD-KXAAAib-EFVXW-LIAGG-PSSGA-PPPS-NH2 (where each X is C) (SEQ ID NO: 61)]
AUC ([1]; CD-1, mouse, plasma, iv, 1 mg/kg, AUC0_24, Table 15, I.V. 1 mg/kg, individual animals): 242 µg·h/mL
AUC(0-t) ([1]; CD-1, mouse, plasma, iv, 1 mg/kg, AUC last, Table 15, I.V. 1 mg/kg, individual animals): 341 µg·h/mL
AUC(0-inf) ([1]; CD-1, mouse, plasma, iv, 1 mg/kg, AUCINF_pred, Table 15, I.V. 1 mg/kg, individual animals): 344 µg·h/mL
C0 ([1]; CD-1, mouse, plasma, iv, 1 mg/kg, C0, Table 15, I.V. 1 mg/kg, individual animals): 15500 ng/mL
Cmax ([1]; CD-1, mouse, plasma, iv, 1 mg/kg, Cmax, Table 15, I.V. 1 mg/kg, individual animals): 15100 ng/mL
Tmax ([1]; CD-1, mouse, plasma, iv, 1 mg/kg, Table 15, I.V. 1 mg/kg, individual animals): 0.08 h
Vd ([1]; CD-1, mouse, plasma, iv, 1 mg/kg, Vss_pred, Table 15, I.V. 1 mg/kg, individual animals): 0.051 L/kg
Vd ([1]; CD-1, mouse, plasma, iv, 1 mg/kg, Vz_pred, Table 15, I.V. 1 mg/kg, individual animals): 0.038 L/kg
half-life ([1]; CD-1, mouse, plasma, iv, 1 mg/kg, t1/2, Table 15, I.V. 1 mg/kg, individual animals): 9.13 h
AUC ([1]; CD-1, mouse, plasma, sc, 1 mg/kg, AUC0_24, CD-1 mouse, S.C., individual animals): 127 µg·h/mL
AUC(0-inf) ([1]; CD-1, mouse, plasma, sc, 1 mg/kg, AUCINF_pred, S.C., individual animals): 274 µg·h/mL
AUC ([1]; CD-1, mouse, plasma, sc, 1 mg/kg, AUCall, S.C., individual animals): 267 µg·h/mL
CL/F ([1]; CD-1, mouse, plasma, sc, 1 mg/kg, Cl_Fpred, S.C., individual animals): 7.2 mL/h/kg
Tmax ([1]; CD-1, mouse, plasma, sc, 1 mg/kg, S.C., individual animals): 24 h
half-life ([1]; CD-1, mouse, plasma, sc, 1 mg/kg, t1/2, CD-1 mouse, S.C., individual animals): 10.7 h
AUC0_24 [1, 5]: 67.917 µg·h/mL and 95.28 µg·h/mL
AUCINF_pred [1, 5]: 143.707 µg·h/mL and 202.468 µg·h/mL
AUC_% Extrap_pred [1, 5]: 2.34% and 3.37% and 2.55%
AUCall [1, 5]: 138.868 µg·h/mL and 197.314 µg·h/mL
AUMC_% Extrap_pred [1, 5]: 7.05% and 10.52% and 7.78%
Cl_Fpred [1, 5]: 14.4 mL/h/kg
Cmax [1, 5]: 9259 ng/mL and 3389 ng/mL and 6337 ng/mL
MRTINF_pred [1, 5]: 28.76 h and 28.77 h
MRTlast [1, 5]: 26.63 h and 27.22 h
Tlast [1, 5]: 72 h
V_F_pred [1, 5]: 0.06 L/kg and 0.12 L/kg and 0.08 L/kg
t1/2 [1, 5]: 12.36 h and 11.01 h
Tlast ([1]; Table 15, I.V. 1 mg/kg, individual animals): 72 h
AUC0_24 [1, 6]: 255.418 µg·h/mL and 285.442 µg·h/mL
AUC last [1, 6]: 355.565 µg·h/mL and 403.09 µg·h/mL
AUCINF_pred [1, 6]: 359.258 µg·h/mL and 407.964 µg·h/mL
AUC_% Extrap_pred [1, 6]: 0.75% and 1.03% and 1.19%
AUMC_% Extrap_pred [1, 6]: 3.41% and 4.82% and 5.56%
C0 [1, 6]: 21060 ng/mL and 24603 ng/mL
Cmax [1, 6]: 20910 ng/mL and 24203 ng/mL
MRTINF_pred [1, 6]: 18.43 h and 18.65 h
MRTlast [1, 6]: 17.72 h and 17.83 h
Vss_pred [1, 6]: 0.054 L/kg and 0.046 L/kg
Vz_pred [1, 6]: 0.04 L/kg and 0.036 L/kg
t1/2 [1, 6]: 10 h and 10.31 h
MRT inf ([1]; mouse, in vivo, iv, 1 mg/kg, Table 15, I.V. 1 mg/kg, individual animals): 18.7 h
MRT last ([1]; mouse, in vivo, iv, 1 mg/kg, MRTlast, Table 15, I.V. 1 mg/kg, individual animals): 18.2 h
MRT inf ([1]; mouse, in vivo, sc, 1 mg/kg, CD-1 mouse, S.C., individual animals): 29 h
MRT last ([1]; mouse, in vivo, sc, 1 mg/kg, MRTlast, CD-1 mouse, S.C., individual animals): 27.6 h
EC50 [2, 4]: 0.56 ± 0.15 nM
EC50 ([2]; Table 11, human, No Serum, read-out: In Vitro Potency GLPIR EC50, No Serum): 0.14 ± 0.06 nM
EC50 [3]: 0.47 nM
